Assay: label from the status in PepcDB records

Sequence | protein production
MASPDGSGSESFRTRRRRNRARFALAAVLTFILVAVGVLALVFYELRPVSLKIAVGPGGGDDLKLVQALAQSFARDRAAVRLVPLVTGGATPSIEAFRDHKADLAVTRADLDLPADAQAVAVLRKNVVVLWAPSSAGKGKKSIKTITDLAGRRVGVIGRTPANVKLFDIILAESGVAPDKVQKEQFATGQLAEMARDPSLDAFLAVGPLDSKITGEAIAATAKARGEPRFLPVDVGDAIAKKYPIYDSEEIPGSIFSTQPARPEDKVDTVSVNHLIVARQSLSSVTVTKLTRQIFAARQQIAREMPLAGKIEAPDTEKDAALPAHRGAAAFIDGTDRTFMERNSDYIWGLVLLLSGLGSAGAWFRSYLTRDEREAGAKMRDRALAMVAKARKAETLEALDALQHEIDKILRDTLDCYDDGAIEDLEPFSLVLEQFHHAVMDRRAALSASGPGLIPVDPATLPAAHA | failed
MASPNTTQPEIILSEEKKASLTTQSTSNNTNDGNILEEQKTLTSQQQPTPVPNTERTEDNVIENLKKTDLSNKDENTTISINTSTNTNINSNTNSNTNTNINSNINTDVNTNINTDINTNTNSNTNSNTNTNINTNANTNTNTNEKAQDEKFQYNGDVSKAFLSPPVFHLTEIMHDERCFKKTKGHVTVEINGDICIYGGMLHDKCVENFIRYVPGINLFEKMRLNSNDIVPRAFCSGNVITEDNKKNIIIFGGINEKDEIVDETYKFDFQAKKWELIGNKICPRARYKHASFSFNDFLYIHGGLDVNNSLLADMWCFSKNSWTPIKQIDRIPEPRYAHSLIFSFYGNAKLVFLFGGNKKGYNAALGDTWIFNINTNRWKEITNSSGSKPCARWGHSSQLFDNEWMIIYGGITNGWIDNYALSDMYALNIFTFSWFEVDISTSKNFDRGYYGSLCFLPYKKSLFVFGGTDNSEDHSDVFSMSPLVTYVSYKTLTGKIEQLNTRMKNINETSSENENMNISEFETKITELKEDINKINFMMKDFESKFCGKIKKLEKLNEQCEKLLSKNINTEELQNLEQRIRKLETSNVLMKHDSI | failed
MASRGLDLWLDEHVWKRKQEIGVKGENLLLPDLWLDFLQLSPIFQRKLAAVIACVRRLRTQATVYPEEDMCMAWARFCDPSDIKVVILGQDPYHGGQANGLAFSVAYGFPVPPSLRNIYAELHRSLPEFSPPDHGCLDAWASQGVLLLNTILTVQKGKPGSHADIGWAWFTDHVISLLSERLKACVFMLWGAKAGDKASLINSKKHLVLTSQHPSPLAQNSTRKSAQQKFLGNNHFVLANNFLREKGLGEIDWRL | not failed
MASRIIFLFSLLIMLGLATGLRGFSALLGFLAFLLLLIIVCQQYRRFLLLFLAILLFLCAWLYGVVQERQNETQLYPLVQSVEGTLISDPELDGDQFSATVKTTDGEKVLIRGRVQAEAEKDKLEMTQIGMVCSFVGQLEIPSEPTNPYQFNYRQFLDNNRIHWIFRTDLTQWQCSDQPTTLFMKVKRWRSEQLQDIYDLASDETAGLIAAFVYGDRSELDGELLSAYQSLGVIHLLAVSGLHVGLVVAAVFYLFIRLGVTRERAYELLLLFLPFYAIVAGAAPSVVRAVGMTMTVLLAFRFQKRLAPIIVLSLVAVIYIIIEPYAIFQLGFQLSFLTTCALLLSSSTLLQAINRPLLSLVKVTFLAQLISMPVILYHFFELPILSVPLNLLFVPVVSFVLLPLSFFVASSLLIHPGVAELPLFILEIIVPIVHQLLLVLNEQSFAAVVIGKPSLNSVFLMMISLIIGWAWLERKEPFKAWGAFSVVLFLIAWQIYSPYWSNEAIVTMIDVGQGDSFLIELPRRKAVYMIDTGGWVTYGEMEPWQERRNTRDIGEQVLTPILKGKGIRGIDKLILTHGHEDHFGGAEGLVRSIKVDEVVYGYKHAEYTEREMEVLSALKKAGASIRFVKSGDQWVIGSSSFRVLSPFGDEEELNDQSVVVYAVIEGVRFLFTGDLEEVGEKRLLEGYGDLKADVLKVGHHGSATSTTDPFLEAVHPVVALISAGRNNLYGHPNQDVLAALEQHETFVLRTDLHGAVKLTIRDGGIYARVMTTD | failed
MASRLGKKRLFLVWSCLVSILPGMAQTEKLIDYVNPFVGTDGYGNVYPGAQIPFGGIQMSPDTDSKYYDAASGYKYNHSTLLGFSLTHLSGTGIPDLGDFLFIPGTGEMKLDPGTREEPEKGYRSRYSHEKEWASPNYYAVELSDYGVKAEMTSGVRSGMFRFTYPQSDKAFIMIDMNHTLWQSCEWANLRMENDSTITGYKLVKGWGPERHIYFTATFSKKLTGLRFMQNKKPVIYNTSRFRSSYEAWGKNLMACISFDTKAGEEVIVKTAISSVSTNGAKNNMAELAGLAFDELKAKGEALWEKELGKYTLTADRKTKRTFYTSAYHAALHPFIFQDVDGQFRGLDKNIEKAEGFTNYTVFSLWDTYRALHPWFNLVQQEVNADIANSMLAHYDKSVEKMLPVWSFYGNETWCMIGYHAVSVLADMIVKGVKGFDYERAYEAMKTTAMNPNYDCLPEYRMMGYVPFDKEAESVSKTLEYAYDDYCMAQAAKALGKEDDYRYFLNRALSYQTLIDPETKYMRGKDSQGNWRTPFTPVAYQGPGSVNGWGDITEGFTVQYTWYVPQDVQGYINEAGENWFRNRLDELFTVELPDDIPGAHDIQGRIGAYWHGNEPCHHVAYLYNYLKEPWKCQKWVRTIADRFYGDTPDALSGNDDCGQMSAWYMFNCIGFYPVAPSSNMYNIGSPCVEAITVRMSNGKVIEMVADNWSPKNVYVKELYVNGKKYDKSYLKYEDIRDGVKLRFVMSSKPNYKRAVSDEAVAPSLSLPGKTMKYQANFSEKKKSGNPVFKGWYADPEGVVFGDEYWIYPTYSAPYDEQTFMDAFSSKDLVNWTKHPKVISKENISWLRRALWAPAVLSANDKYYLFFGANDIQNNNEVGGIGVATSDSPAGPFKDALGKPLIDKIVHGAQPIDQFVFKDDDGQYYMYYGGWGHCNMVKMAPDLLSIVPFEDGTMYKEVTPENYVEGPFMLKRNGKYYFMWSEGGWGLPNYSVAYSISDSPFGPFKRVGKILEQDLSVATGAGHHSVIKGAGEDEWYIVYHRRPLGETAANSRATCIDRMYFDENGYIKPVKMTFEGVLPSPLDSTK | failed
MASSDRGTSTLQGWHALQTLWRGDQRSVIQGLPHSQLAPAWQLLLLGDGSPTRHLQLLTGEPTAVDVIEMAPIADQDDGAPPPIRAIAGPRLRRQVWLRTASGQRLAYATSWWTQQRVDAYLRDRAQPIWANLADLRTELYRDIQGVEYGDSAALSEAFGQTGPFWGRYYLFWHQGQPLTLIYEVFSPAIATYLGPSTPQPVV | failed
MASSKELCSIREWAPLTEVIERIPARLQRGFFPANLNLTCVDATEEFLAMGSDAGIVFWYNRHTGEMQKLKAEVATRITCVRVVNSVEYMVAAGCANGQVSIFQIQKELPRDLDLVAPCTKSRPIERYTIRDLHKCVVSCCEWSKNGMKLYSGDRQGVVVLTELDYQAHLSKSVEILSEAYEIVQLSVRQSYLLVATLYRCIVCQMDAQTSQWNITQVGKKDRKQLIDCGAIFLKKQEANKPQLVCGRPGLRFWVADAAGNVSKTVIFRDAVLRSPTWEIPILNPKQRSEPSGTHHTSASTSSTRHSGLADGDVGYVASSNFRQLYLYDGHDSLLVTHDDATLYVLNLDRLKVEAVARGLRKILDFCVCGKEIFVLEGNRTLLRLAPLPEPPNKTAKVIFNPLMPPPVPVLGSHLSQLESPIELQAEPVLQNAEECFELSPVEQLNLNVPIEIAVESPLTQQNRRLEIFRRIGEMDFEQSIVHTTRKTSVGKPPEASGVGIVEIGHETHELRLPLTNAATLMEASYCQMENNGLASPLDMKAAFLQHLPDALSPTTLQKTVAEKAKTLAAELDLPEVHLAPLSQEELHAVQAQTPQISDPLIRCYPTHLEEASIQTSSRENATNPADDYHVGEPVDGIRSFGVSKRKMAPLKFVLSQPKPTLKLEENRDDEEYTSFLPDFRRAGDPLAIHKETPATSDSNTSSEWEFLDN | failed
MASSTDQNLMDLSDKDTREKLSFWDRRVDPMAPLTDRQTDSILELRAAAEETLLPAELPIEDICSLSSRSLRSSFTAALPESTEEVLLQGFQMLELHNHRIETAQQFFSWFSKLQVQMDQDEASKYRKTRDVLNGYQEQCDAILNDVNTALDHLDSLQKQYLFVSTKTGTLHEACEQLLKEQSELVDLAESIQEKLSYFNELENINTKLNSPTLSVNSEGFVPMLSKLDECIEYVSSHPNFKDYPVYLTKFKQCLSKAMQLIKSHTVNTLQNLTGQLSKRDPLGAPSA | failed
MASSVLEMIKEEVTCPICLELLKEPVSADCNHSFCRACITLNYESNRNTDGKGNCPVCRVPYPFGNLKPNLHVANIVERLKGFKSIPEEEQKVNICAQHGEKLRLFCRKDMMVICWLCERSQEHRGHQTALIEEVDQEYKEKLQGALRKLMKKAKICDEWQDDLQLQRVDWENQIQINVENVQRQFKGLRDLLDSKENEELQKLKKEKKEVMEKLEESENELEDQTELVRDLISDVEHHLQLSTLEMLQGANCVLRRSQSLSLQQPQSVPQKRKRTFQAPDLKGMLQVYQGLMDIQQYWVHMTLHARNNAVIAINKEKRQIQYRSYNTVPVSEIYHLGVLGYPALSSGKHYWEVDISRSDAWLLGLNDGKCAQPQLHSKEEMGIKKNLHSQIKQNVLFQPKCGYWVIGMKNPSVYNAFDECSITHNSSILVISLPDCPSRVGVFLDRKAGTLSFYDVSNCGALIYRFYDPAFPVEVYPYFNPMKCSEPMTICGPPS | not failed
MASTIQALPQEVVYLITAGEVIDSFAAVVRELVENSLDAGANRIVVYLWPQQWRVRVADNGCGMNLDDLQQAASAHSTSKIRSSADLWKIHSLGFRGEALHSLTTLADVEIISRAPENVGWRVVYGDSGKAVHVEATAIAPGTVVTVSNLFASCAARRQGLPTTAQQMKAVQATIQQIALCHPQTTWQVWQNDRIWFTISPAATAGQLIPQFLPQLRPSDLQEIKLEIPNPENPQLSTNNKPNASALALVVGLPDRCHRHRPDWVRVAINGRMIKLPELEQTILAAFHRTLPRDRYPLCFVHLLISPDQINWNRNPAKTEIYLHDLSYWQEQVTQAINQALRISAANIPESVQTTRVSQLLKAAEEKGNYNFNPRNANPADNTQNYLKAVAQVSNTYIVAEHPGGMWLVEQHIAHERVLYEQLCDNWRLIPVEPPIILYQLSPAQVAQLQRIGLDIDIFGEQLWAVRNLPAMLQQREDCAEAILELSWGGDLQTAQVAVACRSAIRNGTPMSLPEMQKLLDDWQRTRNPRTCPHGRPIYLSLDESSLSRFFRRHWVIGKSHGI | failed
MASVAAARAVPVGSGLRGLQRTLPLVVILGATGTGKSTLALQLGQRLGGEIVSADSMQVYEGLDIITNKVSAQEQRICRHHMISFVDPLVTNYTVVDFRNRATALIEDIFARDKIPIVVGGTNYYIESLLWKVLVNTKPQEMGTEKVIDRKVELEKEDGLVLHKRLSQVDPEMAAKLHPHDKRKVARSLQVFEETGISHSEFLHRQHTEEGGGPLGGPLKFSNPCILWLHADQAVLDERLDKRVDDMLAAGLLEELRDFHRRYNQKNVSENSQDYQHGIFQSIGFKEFHEYLITEGKCTLETSNQLLKKGIEALKQVTKRYARKQNRWVKNRFLSRPGPIVPPVYGLEVSDVSKWEESVLEPALEIVQSFIQGHKPTATPIKMPYNEAENKRSYHLCDLCDRIIIGDREWAAHIKSKSHLNQLKKRRRLDSDAVNTIESQSVSPDHNKEPKEKGSPGQNDQELKCSV | failed
MATAAASVVSSETGDLRAYMAANPAAVIEEVAKQWNVSPHAVIAALPDGMARLGPGDGFVAAMNDIATWGEVTLIVHTEDAIFEFTGEVPRGEISRGYFNLMQPKGLHGHLRHDRCGALAFVERPFMGKASAFVAFLNRDGGIMFKVFVGRDANRELRADQLARFHALAKQFSEEHSALEHHHHHH | failed

Reference: a protein production outcome set (Wang et al. 2014)
